Measured values as given in PMC4260750.

Molecular target: ADAM10 (endogenous, rat brain) (UniProt Q10743)
Test: GST pull-down from rat brain homogenate
Settings: reference: GST-SAP97wt, PKC-treated; sites T629

Substance: SAP97 (GST-SAP97 and YFP-SAP97 constructs) (from UniProt Q62696) GST-SAP97-T629A, PKC-treated
- binding against the reference: weaker
